This is an account of results in paper PMC6331215 (Journal of molecular biology, 2018).

Series [1] concerns the target M. marinum EspG3 (construct for SAXS) (M. marinum E11) (UniProt B2HNX0). As to the kind of experiment: SAXS.
Series [2] concerns the molecule itself. Kind of series: SAXS.

For the molecule “M. marinum EspG3 (construct for SAXS) (from UniProt B2HNX0 1-298) (natural protein)”, in series [1], the dimeric fraction at 4.0 mg/ml (wing-shaped dimer model, 4L4W) was 1 and the dimeric fraction at 6.0 mg/ml (wing-shaped dimer model, 4L4W) worked out at 1.

B1: M. marinum EspG1 (natural protein)
chain: MTGPLATGRAGTGDDVVGVEVTIDGMLVIADRLHLVDFPVTLGIRPNIPQEDLREIVWDQVARDLTAQGVLDHNGQPHPAVAAMVDTLSRADRTLEGRWWRRDVGGVMVRFVVCRKGERHVIAVRDGDMLVLQLVAPRVGLAGMVTAVLGTAEPANVEPLTGIASELGECTNAAQLTRYGLTPTTARLYTEIVTNPKSWVEIVASERHPGGTTTHTKAAAGVLDSAHGRLVSLPRQVGGELYGSFLPGTEQNLQRALDSLLELLPSGSWLDRADATARG
The stoichiometry N is the number of molecules, sites or subunits per partner or assembly. For the molecule B1, the “stoichiometry N” value in series [2] was found to be 2.
